# Test results taken from patent US10653749B2, “Targeting GIV-GEF-GI signaling for treating diverse diseases” (The Regents of the University of California, priority 2015, dated 2020).
# Tested on: L×2 human hepatic stellate cells
# Assay: L×2 myofibroblast (hepatic stellate cell) activation by TGFβ, qPCR and immunoblot
# Type: cell-based
# Procedure: For measurement of collagen and αSMA mRNA levels in L×2 HSCs we followed the protocols exactly as before (59). Briefly, total RNA was isolated using an RNeasy kit (QIAGEN) as per the manufacturer's protocol. First-strand cDNA was synthesized using SuperScript II reverse transcriptase (Invitrogen), followed by ribonuclease H treatment (Invitrogen) before performing quantitative realtime PCR. Reactions omitting reverse transcriptase were performed in each experiment as negative controls. Reactions were then run on a real-time PCR system (ABI StepOnePlus; Applied Biosystems). Gene expression was detected with SYBR green (Invitrogen), and relative gene expression was determined by normalizing to GAPDH using the ΔΔT method. The sequences of primers used in this work are identical to what were used previously (59).
# For TAT-protein transduction, cells were incubated with 400-800 nM of the TAT-proteins for 30 min at 37° C. prior to three washes with PBS and addition of fresh growth media. For analysis of EGF signaling, subconfluent monolayers of HeLa cells were treated with TAT proteins for 30 min, washed with PBS, and subsequently stimulated with EGF (50 nM) at 4 h after TAT transduction. For scratch-wound assays, HeLa monolayers were treated with TAT proteins before and at 12 h after wounding. For cancer cell invasion assays, highly invasive MDA MB 231 breast cancer cells were plated in 6-well dishes, treated with TAT-peptides for 30 min and subsequently lifted and placed in transwell chamber in the presence of serum-free media. For L×2 myofibroblast activation assays, cells were first treated with TAT-proteins for 30 min, starved in serum-free media, and subsequently treated with 1.5 ng/ml TGF-β for 24 h. TAT-protein transduction was repeated every 8 h during the course of TGFβ stimulation (total 3 treatments). […] In each case, whole cell lysates prepared from cells in duplicate wells were analyzed for signaling pathways and TAT-protein uptake by immunoblotting.
molecule,measurement,setting,value
"TAT-GIV-CT-FA: GEF-deficient F1685A mutant of the TAT-GIV-CT peptide, dominant-negative; SEQ ID NO: 3 (protein) MRGSHHHHHHGMASMTGGQQMGRDLYDDDDKDRWGSKLGYGRKKRRQRRRGGSTMSGYPYDVPDYAGSMGGSGHSGETLESRHHKIKTGSPGSEVVTLQQALEESNKLTSVQIKSSSQENLLDEVMKSLSVSSDFLGKDKPVSCGLARSVSGKTPGDFYDRRTTKPEFLRPGPRKTEDTYFISSAGKPTPGTQGKIKLVKESSLSRQSKDSNPYATLPRASSVISTAEGTTRRTSIHDFLTKDSRLPISVDSPPAAADSNTTAASNVDKVQESRNSKSRSREQQSS",reduction of HSC activation (expression of α-SMA),"TGFβ 24 h, TAT every 8 h, qPCR",~30%
same,suppression of collagen production,"TGFβ 24 h, TAT every 8 h, vs control and TAT-GIV-CT-WT, qPCR",~70%
same,TGFβ-SMAD cascade (phosphorylation of SMAD2/3),immunoblot,suppression
